For assay [1], the target named is T1, dROS1 ECR construct 1-4 (126-1298), His-tagged (Drosophila, UniProt P13368 126-1298).
T1 sequence (looked up): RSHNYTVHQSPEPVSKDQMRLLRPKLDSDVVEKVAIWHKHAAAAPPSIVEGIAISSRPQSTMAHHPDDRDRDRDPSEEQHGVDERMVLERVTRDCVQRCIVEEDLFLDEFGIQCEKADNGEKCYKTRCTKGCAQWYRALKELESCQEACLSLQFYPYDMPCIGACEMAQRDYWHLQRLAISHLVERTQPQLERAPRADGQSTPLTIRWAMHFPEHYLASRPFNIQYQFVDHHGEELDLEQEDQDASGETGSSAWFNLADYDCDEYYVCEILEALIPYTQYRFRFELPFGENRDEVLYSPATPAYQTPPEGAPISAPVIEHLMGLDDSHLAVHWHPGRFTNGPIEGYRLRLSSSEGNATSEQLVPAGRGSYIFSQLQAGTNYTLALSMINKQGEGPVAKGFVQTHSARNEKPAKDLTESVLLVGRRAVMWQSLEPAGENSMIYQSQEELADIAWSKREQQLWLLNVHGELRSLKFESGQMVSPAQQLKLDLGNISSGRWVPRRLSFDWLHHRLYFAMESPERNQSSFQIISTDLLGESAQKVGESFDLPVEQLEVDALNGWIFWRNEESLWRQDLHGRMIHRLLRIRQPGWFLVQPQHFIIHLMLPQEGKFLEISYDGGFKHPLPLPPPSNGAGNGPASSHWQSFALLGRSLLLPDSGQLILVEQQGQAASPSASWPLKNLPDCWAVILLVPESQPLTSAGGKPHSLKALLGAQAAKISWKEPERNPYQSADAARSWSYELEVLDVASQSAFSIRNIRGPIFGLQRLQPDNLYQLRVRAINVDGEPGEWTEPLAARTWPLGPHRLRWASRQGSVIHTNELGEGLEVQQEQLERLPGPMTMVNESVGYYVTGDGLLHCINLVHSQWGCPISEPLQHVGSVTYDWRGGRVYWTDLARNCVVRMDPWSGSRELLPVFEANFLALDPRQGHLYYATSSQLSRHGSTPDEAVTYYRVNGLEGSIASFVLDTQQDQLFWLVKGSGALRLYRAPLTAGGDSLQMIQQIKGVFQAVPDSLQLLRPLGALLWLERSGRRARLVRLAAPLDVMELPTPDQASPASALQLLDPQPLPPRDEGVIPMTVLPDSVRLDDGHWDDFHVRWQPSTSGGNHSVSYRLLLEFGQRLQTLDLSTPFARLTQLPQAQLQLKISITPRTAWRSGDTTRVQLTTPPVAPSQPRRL
In words: SPR. Background: In SPR one partner is held on a chip, and binding of the other changes the refractive index at the surface.

The target of assay [2] is dROS1 ECR construct 1-9 (126-2113) (Drosophila, UniProt P13368 126-2113). In words: SPR.

B1: BOSS ECR (102-510), His-tag cleaved (domain or fragment, Drosophila, UniProt P22815 102-510, looked up)
chain: GTTASLVPEICLNGLQLTVNSADEGTVIRKQEEFVKILEGDVVLSVLTKDPDSALFVINRVNQANLIMADFEIGIRAISIDNASLAENLLIQEVQFLQQCTTYSMGIFVDWELYKQLESVIKDLEYNIWPIPGTRAHLFPKVAHLLHQMPWGEKIASVEIATETLEMYNEFMEAARQEHMCLMHFKSDDNVYIMFGNKLASHFKENGTLFSVPTDRTDDEFLADLPNRAFVLMENEIDLSTAVELDATPTALDEILIGKSVLPSRVLSFAGSIIDLMNWLRGSLSKHCKRGEEHDLYVLESCFNFLNFIEDWRTSEYRQAHDTAEILSLLLMRKLGTAMNFQMYQKKVLTLDKITGESRTELREIASQNFVTNVTTYYHYNRDNHTSLELKTKFGQVFNCQYSAGDNRR
With B1, the results for the Kd in assay [1] and in assay [2] were 3 to 5 µM and 4.4 µM, respectively.

The record behind these values is doi:10.1101/2024.03.13.584817 (bioRxiv, 2024).
